The values that follow are results of earlier work, collected in publication PMC8865373.

One may read the Kd as the concentration at which binding is half-saturated.

Data set [1] has as its target CBP TAZ2 TAZ2 (UniProt P45481).
In data set [2] the target is CBP TAZ2 TAZ2 (UniProt P45481). This is another data set of the same source.

Like-named read-outs stand apart in the source and are kept apart here.

Chain of CBP TAZ2 TAZ2 (P45481 1764-1855): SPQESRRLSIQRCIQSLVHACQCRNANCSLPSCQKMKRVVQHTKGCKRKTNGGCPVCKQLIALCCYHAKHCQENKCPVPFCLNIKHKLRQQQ
Chain of p53 AD1 AD1 (P04637 13-37): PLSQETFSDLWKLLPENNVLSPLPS
Chain of HPV E7 (P03129 whole entry): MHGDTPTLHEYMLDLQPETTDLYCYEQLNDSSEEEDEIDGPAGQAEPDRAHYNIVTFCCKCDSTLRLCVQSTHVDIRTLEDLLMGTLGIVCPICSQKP

On to p53 AD1 AD1 (from UniProt P04637), for which the equilibrium dissociation constant (Kd) in the data set with CBP TAZ2 TAZ2 [1] is 24 µM.

For HPV E7 (from UniProt P03129), the equilibrium dissociation constant (Kd) in the data set with CBP TAZ2 TAZ2 [2] is 0.022 µM.
